Numbered stars: 1 amine (or outer) side, 2 acyl side, 3 side chain; on linkers, the order of the positions; unused ones are H or OH. Square brackets hold non-standard residues; d marks the D form. * marks the point of attachment. octavalent 20 kDa PEG = 20 kDa PEG with eight arms, each linked to one peptide copy through Cys; tetravalent 20 kDa PEG = 20 kDa PEG with four arms, each linked to one peptide copy through Cys; trivalent 20 kDa PEG = 20 kDa PEG with three arms, each linked to one peptide copy through Cys; 20 kDa MeO‑PEG = methoxy-polyethylene glycol of 20 kDa conjugated to the residue side chain; 13C1,2Ac = N-terminal acetyl group labelled with 13C at carbons 1 and 2, [13CH3][13C](=O)*; 15N‑F = phenylalanine labelled with 15N, O=C([C@H](Cc1ccccc1)[15NH][*:1])[*:2]; Cit = NC(=O)NCCC[C@H](N)C(=O)O; 3IPA = not defined here
Target: CGRP1 receptor (CRLR/RAMP1 complex) of human neuroblastoma SK-N-MC cells (human, UniProt Q16602 23-461; O60894 27-148)
Test: cell-based or functional assay

Sequence of CGRP1 receptor (CRLR/RAMP1 complex) of human neuroblastoma SK-N-MC cells (Q16602 23-461, chain 1 of 2): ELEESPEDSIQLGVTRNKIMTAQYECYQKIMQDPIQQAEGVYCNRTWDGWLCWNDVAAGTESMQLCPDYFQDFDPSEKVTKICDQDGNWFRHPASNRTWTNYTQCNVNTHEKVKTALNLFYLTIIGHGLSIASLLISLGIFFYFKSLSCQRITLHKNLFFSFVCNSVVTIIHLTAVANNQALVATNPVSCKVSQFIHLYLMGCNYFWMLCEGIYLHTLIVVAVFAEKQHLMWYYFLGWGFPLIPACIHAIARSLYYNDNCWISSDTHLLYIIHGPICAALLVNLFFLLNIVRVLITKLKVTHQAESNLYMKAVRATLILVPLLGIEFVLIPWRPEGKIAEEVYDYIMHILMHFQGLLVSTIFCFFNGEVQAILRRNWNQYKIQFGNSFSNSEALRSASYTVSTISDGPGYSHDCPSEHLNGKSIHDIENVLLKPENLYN
Sequence of CGRP1 receptor (CRLR/RAMP1 complex) of human neuroblastoma SK-N-MC cells (O60894 27-148, chain 2 of 2): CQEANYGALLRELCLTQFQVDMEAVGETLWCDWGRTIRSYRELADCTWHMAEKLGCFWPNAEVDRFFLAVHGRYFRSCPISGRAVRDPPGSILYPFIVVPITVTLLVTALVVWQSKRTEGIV

Row | Binder | IC50
1 | Ac-WVTHQLAGLLSQSGGVVRK(20 kDa MeO‑PEG)NFVPTDVGPFAF-NH2 [SEQ ID NO 818] | 7.18 nM
2 | Ac-WVTHRLAGLLSQSGGVVRKNFVPTDVGPFAF-NH2 [SEQ ID NO 814] | 0.47 nM
3 | {Ac-3IPA}-VTHRLAGLLSRSGGVVRC(20 kDa MeO‑PEG)NFVPTDVGPFAF-NH2 (reading uncertain; also: places 3IPA at position 1, printed as Ac-[3IPA]-VTHRLAGLLSRSGGVVRC^(20 kDa MeO-PEG)NFVPTDVGPFAF-amide) [SEQ ID NO 779] | 2.22 nM
4 | {13C1,2Ac}-WVTHRLAGLLSRSGGVVRK(20 kDa MeO‑PEG)NFVPTDVGPFA[15N‑F]-NH2 [SEQ ID NO 803] | 3.28 nM
5 | Ac-WVTHRLAGLLSRSGGVVRC(tetravalent 20 kDa PEG)NFVPTDVGPFAF-NH2 (also: tetravalent PEG joins four peptide copies) [SEQ ID NO 782] | 0.08 nM
6 | Ac-WVTHQLAGLLSQSGGVVRKNFVPTDVGPFAF-NH2 [SEQ ID NO 816] | 0.53 nM
7 | WVTHRLAGLLSRSGGVVRNCFVPTDVGPFAF (Ac-WVTHRLAGLLSRSGGVVRNC^(20 kDa MeO-PEG)FVPTDVGPFAF-amide) [SEQ ID NO 801] | 1.64 nM
8 | Ac-WVTHRLAGLLSRSGGVVRC(trivalent 20 kDa PEG)NFVPTDVGPFAF-NH2 (also: trivalent PEG joins three peptide copies) [SEQ ID NO 781] | 0.19 nM
9 | Ac-WVTH[Cit]LAGLAS[Cit]SGGVVRKNFVPTDVGPFAF-NH2 [SEQ ID NO 852] | 23.4 nM
10 | Ac-WVTHQLAGLLSQSGGVVRK(20 kDa MeO‑PEG)NFVPTDVGPFAF-NH2 [SEQ ID NO 817] | 5.24 nM
11 | WVTHXLAGLLSXSGGVVRKNFVPTDVGPFAF (Ac-WVTH[hArg]LAGLLS[hArg]SGGVVRKNFVPTDVGPFAF-amide) [SEQ ID NO 784] | 2.1 nM
12 | WVTHXLAGLLSRSGGVVRKNFVPTDVGPFAF (Ac-WVTH[hArg]LAGLLSRSGGVVRKNFVPTDVGPFAF-amide) [SEQ ID NO 788] | 0.44 nM
13 | WVTHRLAGLLSXSGGVVRKNFVPTDVGPFAF (Ac-WVTHRLAGLLS[hArg]SGGVVRK^(20 kDa MeO-PEG)NFVPTDVGPFAF-amide) [SEQ ID NO 787] | 0.33 nM
14 | Ac-WVTHRLAGLLSRSGGVKRNNFVPTDVGPFAF-NH2 [SEQ ID NO 823] | 0.51 nM
15 | Ac-WVTHRLAGLLSRPGGVVRK(20 kDa MeO‑PEG)NFVPTDVGPFAF-NH2 [SEQ ID NO 855] | 18 nM
16 | Ac-WVTHRLAGLAS[Cit]SGGVVRK(MeO‑PEG 20 kDa)NFVPTDVGPFAF-NH2 [SEQ ID NO 851] | 228 nM

The remaining lines, values ahead:

Row | IC50 | Binder
17 | 1.85 nM | Ac-WVTHRLAGLAS[Cit]SGGVVRKNFVPTDVGPFAF-NH2 (SMILES CC(=O)N[C@@H](Cc1c[nH]c2ccccc12)C(=O)N[C@H](C(=O)N[C@H](C(=O)N[C@@H](Cc1c[nH]cn1)C(=O)N[C@@H](CCCNC(=N)N)C(=O)N[C@@H](CC(C)C)C(=O)N[C@@H](C)C(=O)NCC(=O)N[C@@H](CC(C)C)C(=O)N[C@@H](C)C(=O)N[C@@H](CO)C(=O)N[C@@H](CCCNC(N)=O)C(=O)N[C@@H](CO)C(=O)NCC(=O)NCC(=O)N[C@H](C(=O)N[C@H](C(=O)N[C@@H](CCCNC(=N)N)C(=O)N[C@@H](CCCCN)C(=O)N[C@@H](CC(N)=O)C(=O)N[C@@H](Cc1ccccc1)C(=O)N[C@H](C(=O)N1CCC[C@H]1C(=O)N[C@H](C(=O)N[C@@H](CC(=O)O)C(=O)N[C@H](C(=O)NCC(=O)N1CCC[C@H]1C(=O)N[C@@H](Cc1ccccc1)C(=O)N[C@@H](C)C(=O)N[C@@H](Cc1ccccc1)C(N)=O)C(C)C)[C@@H](C)O)C(C)C)C(C)C)C(C)C)[C@@H](C)O)C(C)C) [SEQ ID NO 850]
18 | 1.27 nM | Ac-WVTHRLAGLLSRPGGVVRKNFVPTDVGPFAF-NH2 [SEQ ID NO 854]
19 | 0.36 nM | Ac-WVTHRLAGLLSRSGGVCRNNFVPTDVGPFAF-NH2 [SEQ ID NO 820]
20 | 0.16 nM | Ac-WVTHRLAGLLSRSGGVC(20 kDa MeO‑PEG)RNNFVPTDVGPFAF-NH2 [SEQ ID NO 821]
21 | > 1000 nM | Ac-WVTH[Cit]LAGLAS[Cit]SGGVVRK(20 kDa MeO‑PEG)NFVPTDVGPFAF-NH2 [SEQ ID NO 853]
22 | 0.58 nM | WVTHRLAGLLSXSGGVVRKNFVPTDVGPFAF (Ac-WVTHRLAGLLS[Cit]SGG VVRKNFVPTDVGPFAF-amide) [SEQ ID NO 796]
23 | 0.57 nM | WVTHXLAGLLSRSGGVVRKNFVPTDVGPFAF (Ac-WVTH[Cit]LAGLLSRSGGV VRKNFVPTDVGPFAF-amide) [SEQ ID NO 798]
24 | 0.57 nM | WVTHRLAGLLSXSGGVVRKNFVPTDVGPFAF (Ac-WVTHRLAGLLS[hArg]SGGVVRKNFVPTDVGPFAF-amide) [SEQ ID NO 786]
25 | 0.37 nM | WVTHXLAGLLSXSGGVVRKNFVPTDVGPFAF (Ac-WVTH[hArg]LAGLLS[hArg]SGGVVRK^(20 kDa MeO-PEG)NFVPTDVGPFAF-amide) [SEQ ID NO 785]
26 | 0.36 nM | WVTHXLAGLLSRSGGVVRKNFVPTDVGPFAF (Ac-WVTH[hArg]LAGLLSRSGGVVRK^(20 kDa MeO-PEG)NFVPTDVGPFAF-amide) [SEQ ID NO 789]
27 | 0.96 nM | WVTHRLAGLLSXSGGVVRKNFVPTDVGPFAF (Ac-WVTHRLAGLLS[Cit]SGG VVRK^(20 kDa MeO-PEG)NFVPTDVGPFAF-amide) [SEQ ID NO 797]
28 | 2.08 nM | WVTHXLAGLLSRSGGVVRKNFVPTDVGPFAF (Ac-WVTH[Cit]LAGLLSRSGGV VRK^(20 kDa MeO-PEG)NFVPTDVGPFAF-amide) [SEQ ID NO 799]
29 | 1.7 nM | WVTHXLAGLLSXSGGVVRKNFVPTDVGPFAF (Ac-WVTH[Cit]LAGLLS[Cit]SGG VVRKNFVPTDVGPFAF-amide) [SEQ ID NO 790]
30 | 0.98 nM | Ac-WVTHRLAGLLSRSGGVK(20 kDa MeO‑PEG)RNNFVPTDVGPFAF-NH2 [SEQ ID NO 824]
31 | 1.4 nM | Ac-WVTHRLAGLLSRSGGVVRC(octavalent 20 kDa PEG)NFVPTDVGPFAF-NH2 (also: eight peptides linked via Cys to one octavalent 20 kDa PEG) [SEQ ID NO 783]
32 | 0.46 nM | Ac-WVTHRLAGLLSQSGGVVRK(20 kDa MeO‑PEG)NFVPTDVGPFAF-NH2 [SEQ ID NO 815]

Reference: US20080020978A1 (Amgen, published 2008)
